Target: T1, MukB^K1114E (E. coli, UniProt P22523 1-1486, K1114E)
T1 sequence (looked up): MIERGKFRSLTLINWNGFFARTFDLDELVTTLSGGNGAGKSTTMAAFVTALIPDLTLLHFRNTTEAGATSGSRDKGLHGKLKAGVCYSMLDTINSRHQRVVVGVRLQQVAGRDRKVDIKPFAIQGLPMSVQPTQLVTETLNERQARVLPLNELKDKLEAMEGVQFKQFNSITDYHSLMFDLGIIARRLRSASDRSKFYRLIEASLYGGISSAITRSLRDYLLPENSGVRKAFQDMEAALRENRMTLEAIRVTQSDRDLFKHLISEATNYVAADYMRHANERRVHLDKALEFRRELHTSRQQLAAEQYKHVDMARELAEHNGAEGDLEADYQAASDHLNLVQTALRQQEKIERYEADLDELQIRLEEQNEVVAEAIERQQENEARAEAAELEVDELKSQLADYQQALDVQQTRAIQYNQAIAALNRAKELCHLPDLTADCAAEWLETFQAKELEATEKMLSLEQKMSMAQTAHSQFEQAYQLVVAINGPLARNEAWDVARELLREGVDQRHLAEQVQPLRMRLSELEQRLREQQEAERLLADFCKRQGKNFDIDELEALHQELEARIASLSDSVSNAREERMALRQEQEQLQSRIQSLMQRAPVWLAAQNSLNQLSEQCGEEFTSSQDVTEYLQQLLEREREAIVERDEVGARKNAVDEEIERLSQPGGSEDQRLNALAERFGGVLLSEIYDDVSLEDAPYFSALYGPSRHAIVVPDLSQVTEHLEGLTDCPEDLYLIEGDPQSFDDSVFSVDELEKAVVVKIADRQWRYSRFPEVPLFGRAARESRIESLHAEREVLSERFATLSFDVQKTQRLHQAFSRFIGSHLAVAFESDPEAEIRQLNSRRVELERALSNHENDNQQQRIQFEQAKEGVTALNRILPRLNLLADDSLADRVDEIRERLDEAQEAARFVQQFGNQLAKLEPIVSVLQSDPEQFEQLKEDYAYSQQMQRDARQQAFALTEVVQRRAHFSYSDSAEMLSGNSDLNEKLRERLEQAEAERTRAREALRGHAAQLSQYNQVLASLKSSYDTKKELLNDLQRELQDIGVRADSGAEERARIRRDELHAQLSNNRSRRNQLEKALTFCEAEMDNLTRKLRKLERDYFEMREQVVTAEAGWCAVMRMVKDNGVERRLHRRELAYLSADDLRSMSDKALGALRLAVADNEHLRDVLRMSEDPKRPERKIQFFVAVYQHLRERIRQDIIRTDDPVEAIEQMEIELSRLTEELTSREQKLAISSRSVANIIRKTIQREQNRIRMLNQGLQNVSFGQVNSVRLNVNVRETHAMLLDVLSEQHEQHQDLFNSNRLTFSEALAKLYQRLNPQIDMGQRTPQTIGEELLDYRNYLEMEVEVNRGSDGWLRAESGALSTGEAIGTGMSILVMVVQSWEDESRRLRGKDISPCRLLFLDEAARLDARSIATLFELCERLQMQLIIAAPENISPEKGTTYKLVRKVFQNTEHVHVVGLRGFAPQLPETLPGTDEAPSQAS
Experiment: native gel or EMSA

binding result: binds
B1: His-MukF (natural protein, E. coli, UniProt P60293 1-440, looked up)
chain: MSEFSQTVPELVAWARKNDFSISLPVDRLSFLLAVATLNGERLDGEMSEGELVDAFRHVSDAFEQTSETIGVRANNAINDMVRQRLLNRFTSEQAEGNAIYRLTPLGIGITDYYIRQREFSTLRLSMQLSIVAGELKRAADAAEEGGDEFHWHRNVYAPLKYSVAEIFDSIDLTQRLMDEQQQQVKDDIAQLLNKDWRAAISSCELLLSETSGTLRELQDTLEAAGDKLQANLLRIQDATMTHDDLHFVDRLVFDLQSKLDRIISWGQQSIDLWIGYDRHVHKFIRTAIDMDKNRVFAQRLRQSVQTYFDEPWALTYANADRLLDMRDEEMALRDEEVTGELPEDLEYEEFNEIREQLAAIIEEQLAVYKTRQVPLDLGLVVREYLSQYPRARHFDVARIVIDQAVRLGVAQADFTGLPAKWQPINDYGAKVQAHVIDKY

Reference: article doi:10.1101/2021.04.12.439405 (bioRxiv, 2021)
